This note sets out measurements from paper PMC3747146 (PLoS ONE, 2013).

This data set concerns the molecule itself. The data set can be described thus: SEC; Superdex 200 on an ÄKTA FPLC at 4°C, PBS with 10% glycerol (pH 7.4), flow 0.35 ml/min; recombinant proteins released from GST with PreScission. A general note: SEC sorts molecules by how far they enter the pores of the column.

B1: MALT1(ΔNT), wildtype protease domain and C-terminal extension (aa 333-824) (domain or fragment, UniProt Q9UDY8 333-824, looked up)
chain: QTTDQPLAKDKVALLIGNMNYREHPKLKAPLVDVYELTNLLRQLDFKVVSLLDLTEYEMRNAVDEFLLLLDKGVYGLLYYAGHGYENFGNSFMVPVDAPNPYRSENCLCVQNILKLMQEKETGLNVFLLDMCRKRNDYDDTIPILDALKVTANIVFGYATCQGAEAFEIQHSGLANGIFMKFLKDRLLEDKKITVLLDEVAEDMGKCHLTKGKQALEIRSSLSEKRALTDPIQGTEYSAESLVRNLQWAKAHELPESMCLKFDCGVQIQLGFAAEFSNVMIIYTSIVYKPPEIIMCDAYVTDFPLDLDIDPKDANKGTPEETGSYLVSKDLPKHCLYTRLSSLQKLKEHLVFTVCLSYQYSGLEDTVEDKQEVNVGKPLIAKLDMHRGLGRKTCFQTCLMSNGPYQSSAATSGGAGHYHSLQDPFHGVYHSHPGNPSNVTPADSCHCSRTPDAFISSFAHHASCHFSRSNVPVETTDEIPFSFSDRLRISEK
notes: MALT1 (paracaspase), protease domain and C-terminal extension, aa 333-824; also called ΔNT construct; source: E. coli BL21, GST fusion purified on glutathione-Sepharose, released with PreScission enzyme
Consider B1, for which the binding result is “binds”.

B2: MALT1(ΔNT) E549A, protease domain and C-terminal extension (aa 333-824) (domain or fragment, UniProt Q9UDY8 333-824, looked up)
chain: QTTDQPLAKDKVALLIGNMNYREHPKLKAPLVDVYELTNLLRQLDFKVVSLLDLTEYEMRNAVDEFLLLLDKGVYGLLYYAGHGYENFGNSFMVPVDAPNPYRSENCLCVQNILKLMQEKETGLNVFLLDMCRKRNDYDDTIPILDALKVTANIVFGYATCQGAEAFEIQHSGLANGIFMKFLKDRLLEDKKITVLLDEVAEDMGKCHLTKGKQALAIRSSLSEKRALTDPIQGTEYSAESLVRNLQWAKAHELPESMCLKFDCGVQIQLGFAAEFSNVMIIYTSIVYKPPEIIMCDAYVTDFPLDLDIDPKDANKGTPEETGSYLVSKDLPKHCLYTRLSSLQKLKEHLVFTVCLSYQYSGLEDTVEDKQEVNVGKPLIAKLDMHRGLGRKTCFQTCLMSNGPYQSSAATSGGAGHYHSLQDPFHGVYHSHPGNPSNVTPADSCHCSRTPDAFISSFAHHASCHFSRSNVPVETTDEIPFSFSDRLRISEK
notes: MALT1 (paracaspase), protease domain and C-terminal extension, aa 333-824, with E549A; source: E. coli BL21, GST fusion purified on glutathione-Sepharose, released with PreScission enzyme
With B2, the binding result is “binds”.

B3: MALT1(Casp-like), wildtype isolated protease domain (aa 333-566) (domain or fragment, UniProt Q9UDY8 333-566, looked up)
chain: QTTDQPLAKDKVALLIGNMNYREHPKLKAPLVDVYELTNLLRQLDFKVVSLLDLTEYEMRNAVDEFLLLLDKGVYGLLYYAGHGYENFGNSFMVPVDAPNPYRSENCLCVQNILKLMQEKETGLNVFLLDMCRKRNDYDDTIPILDALKVTANIVFGYATCQGAEAFEIQHSGLANGIFMKFLKDRLLEDKKITVLLDEVAEDMGKCHLTKGKQALEIRSSLSEKRALTDPIQG
notes: MALT1 (paracaspase), isolated protease (caspase-like) domain, aa 333-566; also called Casp-like construct; MALT1 caspase-like domain; source: E. coli BL21, GST fusion purified on glutathione-Sepharose, released with PreScission enzyme
One may read the stoichiometry N as the number of molecules, sites or subunits per partner or assembly. B3: the “stoichiometry N” value was determined as 2.
